Measured values as given in patent publication US20180263919A1, “THERAPEUTIC ELECTROSPUN FIBER COMPOSITIONS” (The Johns Hopkins University, priority 2006, published 2018).

How the values were obtained:
[1] = system: PC12 cells; assay: Bioactivity of released NGF: differentiation of PC12 cells into neurons; assay type: cell-based, rat; conditions: positive control, fresh NGF at 400 ng/ml
[2] = rat, in vivo; cited from earlier work
[3] = system: PC12 cells; conditions: Thoenen and Bard; cited from earlier work
[4] = in vivo, iv; cited from earlier work

Substance	percentage of PC12 cells induced to differentiate [1]	elimination half-life [2]	threshold for induction of PC12 cell differentiation [3]	biologic half-life [4]
NGF: Recombinant human n-nerve growth factor (NGF) from R&D Systems	20-55%	less than 5 hours	around 0.5 ng/ml	–
PDGF	–	–	–	2 minutes
bFGF: basic fibroblast growth factor	–	–	–	3 minutes
